Reference: the RNAGym collection of RNA variant scans (doi:10.7554/elife.90254)

B1: LINE1-full (parent)
chain: UACGUAGGUGGUUUUCCCCUGAUAGUGCUAAGGGGGCCUGGAAGUUUGGACUGGGCAGAGCUCAACACAGCGUGGCAAAGUGGCUGUGGCUAGACUGCCUCUCUGGAUUCCUCGUCACUCAGCAGGGCAUCUCUGAGAGAAAUGCC

Variants of: B1
Assay: self-cleavage, relative activity (ratio to wild type); higher = more cleavage; in vitro, sequencing; the parent is a self-cleaving ribozyme

| Variant | self-cleavage |
| --- | --- |
| UACGUAGGUGGUUUUCCCCUGAUAGUGCUAAGGGGGCCUGGUAGUUUGGACUGGGCAGAGCUCAACACAGCGUGGCAAAGUGGCUGUGGCUAGACUGCCUCUCUGGAUUCCUCGUCACUCAGCAGGGGAUCUCUGAGAGAAAUGCC [A42U C128G] | 0.87 |
| UACGUAGGUGGUUUUCCCCUGAUAGUGCUAAGGGGGCCUGGUAGUUUGGACUGGGCAGAGCUCAACACAGCGUGGCAAAGUGGCUGUGUCUAGACUGCCUCUCUGGAUUCCUCGUCACUCAGCAGGGCAUCUCUGAGAGAAAUGCC [A42U G89U] | 0.04 |
| UACGUAGGUGGUUUUCCCCUGAUAGUGCUAAGGGGGCCUGGUAGUUUGGACUGGGCAGAGCUCAACACAGCGUGGCAAAGUGGCUGUGGCUAGACUGCCUCUCUGGAUUCCUCGUCACCCAGCAGGGCAUCUCUGAGAGAAAUGCC [A42U U119C] | 1.73 |
| UACGUAGGUGGUUUUCCCCUGAUAGUGCUAAGGGGGCCUGGACGUUUGGACUGGGCAGAGCUCAACACAGCGUGGCAAAGUGGCUGUGGCUAGACUGCCUCUCUGGAUUCCUCGUCACUCAGCAGGGCAUCUCUGAGGGAAAUGCC [A43C A138G] | 1.02 |
| UACGUAGGUGGUUUUCCCCUGAUAGUGCUAAGGGGGCCUGGUAGUUUGGACUGGGCAGAGCUCAACACAGCGUGGCAAAGUGGCUGUGGCUAGACUGCCUCUCUGGAUUCCUCGUCACUCAGCAGGGCAUCUCUGAGAGAUAUGCC [A42U A141U] | 0.81 |
| UACGUAGGUGGUUUUCCCCUGAUAGUGCUAAGGGGGCCUGGACGUUUGGACUGGGCAGAGCUCAACACAGCGUGGCAUAGUGGCUGUGGCUAGACUGCCUCUCUGGAUUCCUCGUCACUCAGCAGGGCAUCUCUGAGAGAAAUGCC [A43C A78U] | 2.11 |
| UACGUAGGUGGUUUUCCCCUGAUAGUGCUAAGGGGGCCUGGUAGUUUGGACUGGGCAGAGCUCAACACAGCGUGGCAAAGUGGCUGUGGCUAGACUGCCUCUCUGGAUUCCUAGUCACUCAGCAGGGCAUCUCUGAGAGAAAUGCC [A42U C113A] | 0.98 |
| UACGUAGGUGGUUUUCCCCUGAUAGUGCUAAGGGGGCCUGGUAGUUUGGACUGGGCAGAGCUCAACACAGCGUGGCAAAGUGGCUGUGGCUAGACUGCCUCUCUGGAUUCCUCGUCACUCAGCAGGGCUUCUCUGAGAGAAAUGCC [A42U A129U] | 0.86 |
| UACGUAGGUGGUUUUCCCCUGAUAGUGCUAAGGGGGCCUGGUAGUUUGGACUGGGCAGAGCUCAACACAGCGUGGCAAAGUGGCUGUGGCUAGACUGCCUCUCUGGAUUCCUCGUCACUCAGCAGGGCGUCUCUGAGAGAAAUGCC [A42U A129G] | 1.34 |
| UACGUAGGUGGUUUUCCCCUGAUAGUGCUAAGGGGGCCUGGUAGUUUGGACUGGGCAGAGCUCAACACAGCGUGGCAAAGUGGCUGUGGCUAGACUGCCUCUCUGGAUUCCUCGUCACUCAGCAGGGCAUCUCUGAGAGAAGUGCC [A42U A142G] | 0.88 |
| UACGUAGGUGGUUUUCCCCUGAUAGUGCUAAGGGGGCCUGGUAGUUUGGACUGGGCAGAGCUCAACACAGCGCGGCAAAGUGGCUGUGGCUAGACUGCCUCUCUGGAUUCCUCGUCACUCAGCAGGGCAUCUCUGAGAGAAAUGCC [A42U U73C] | 1.56 |
| UACGUAGGUGGUUUUCCCCUGAUAGUGCUAAGGGGGCCUGGUAGUUUGGACUGGGCAGAGCUCAACACAGCGGGGCAAAGUGGCUGUGGCUAGACUGCCUCUCUGGAUUCCUCGUCACUCAGCAGGGCAUCUCUGAGAGAAAUGCC [A42U U73G] | 0.95 |
| UACGUAGGUGGUUUUCCCCUGAUAGUGCUAAGGGGGCCUGGUAGUUUGGACUGGGCAGAGCCCAACACAGCGUGGCAAAGUGGCUGUGGCUAGACUGCCUCUCUGGAUUCCUCGUCACUCAGCAGGGCAUCUCUGAGAGAAAUGCC [A42U U62C] | 0.04 |
| UACGUAGGUGGUUUUCCCCUGAUAGUGCUAAGGGGGCCUGGUAGUUUGGACUGGGCAGAGCUCAACACAGCGUGGCAAAGUGGCUGUGGCUAGACUGCCCCUCUGGAUUCCUCGUCACUCAGCAGGGCAUCUCUGAGAGAAAUGCC [A42U U100C] | 1.32 |
| UACGUAGGUGGUUUUCCCCUGAUAGUGCUAAGGGGGCCUGGUAGUUUGGACUGGGCAGAGCUCAACACAGCGUGGCAAAGUGGCUGUGGCUAGACUGCCACUCUGGAUUCCUCGUCACUCAGCAGGGCAUCUCUGAGAGAAAUGCC [A42U U100A] | 0.62 |
| UACGUAGGUGGUUUUCCCCUGAUAGUGCUAAGGGGGCCUGGUAGUUUGGACUGGGCAGAGCUCAACACAGCGUGGCAAAGUGGCUGUGGCUAGACUGCCUCUCUGGAUUCCUCGUCACUCAGCUGGGCAUCUCUGAGAGAAAUGCC [A42U A124U] | 1.09 |
| UACGUAGGUGGUUUUCCCCUGAUAGUGCUAAGGGGGCCUGGUAGUUUGGACUGGGCAGAGCUCAACACAGCGUGGCAAAGUGGCUGUGGCUAGACUGCCUCUCUGGAUUCCACGUCACUCAGCAGGGCAUCUCUGAGAGAAAUGCC [A42U U112A] | 1.15 |
| UACGUAGGUGGUUUUCCCCUGAUAGUGCUAAGGGGGCCUGGUAGUUUGGACUGGGCAGAGCUCAACACAGCGUGGCAAAGUGGCUGUGGCUAGACUGCCUCUCUGGAUUCCCCGUCACUCAGCAGGGCAUCUCUGAGAGAAAUGCC [A42U U112C] | 1.08 |
| UACGUAGGUGGUUUUCCCCUGAUAGUGCUAAGGGGGCCUGGUAGUUUGGACUGGGCAGAGCUCAACACAGCGUGGCAAAGUGGCUGUGGCUAGACUGCCUCUCUGGAUUCCUCGUCACUCCGCAGGGCAUCUCUGAGAGAAAUGCC [A42U A121C] | 2.42 |
| UACGUAGGUGGUUUUCCCCUGAUAGUGCUAAGGGGGCCUGGUAGUUUGGACUGGGCAGAGCUCAACACAGCUUGGCAAAGUGGCUGUGGCUAGACUGCCUCUCUGGAUUCCUCGUCACUCAGCAGGGCAUCUCUGAGAGAAAUGCC [A42U G72U] | 0.62 |

| Variant | self-cleavage |
| --- | --- |
| UACGUAGGUGGUUUUCCCCUGAUAGUGCUAAGGGGGCCUGGACGUUUGGACUGGGCAGAGCUCAAUACAGCGUGGCAAAGUGGCUGUGGCUAGACUGCCUCUCUGGAUUCCUCGUCACUCAGCAGGGCAUCUCUGAGAGAAAUGCC [A43C C66U] | 0.04 |
| UACGUAGGUGGUUUUCCCCUGAUAGUGCUAAGGGGGCCUGGACGUUUGGACUGGGCAGAGCUCAACACAGCGUGGCUAAGUGGCUGUGGCUAGACUGCCUCUCUGGAUUCCUCGUCACUCAGCAGGGCAUCUCUGAGAGAAAUGCC [A43C A77U] | 1.39 |
| UACGUAGGUGGUUUUCCCCUGAUAGUGCUAAGGGGGCCUGGUAGCUUGGACUGGGCAGAGCUCAACACAGCGUGGCAAAGUGGCUGUGGCUAGACUGCCUCUCUGGAUUCCUCGUCACUCAGCAGGGCAUCUCUGAGAGAAAUGCC [A42U U45C] | 1.4 |
| UACGUAGGUGGUUUUCCCCUGAUAGUGCUAAGGGGGCCUGGUAGUUUGGACUGGGCAGAGCUCAACACAGCGUGGCAAAGUGGCUGUGGCUAGACUGCCUCUCUGGAUUCCUCGUCACUCAGCAGGGCAUCUCUGAGGGAAAUGCC [A42U A138G] | 1.28 |
| UACGUAGGUGGUUUUCCCCUGAUAGUGCUAAGGGGGCCUGGUAGUUUGGACAGGGCAGAGCUCAACACAGCGUGGCAAAGUGGCUGUGGCUAGACUGCCUCUCUGGAUUCCUCGUCACUCAGCAGGGCAUCUCUGAGAGAAAUGCC [A42U U52A] | 1.2 |
| UACGUAGGUGGUUUUCCCCUGAUAGUGCUAAGGGGGCCUGGUAGUUUGGACUGGGCAGAGCUCAACACAGCGUGGCAAAGUGGCUGUGGCUAGACUGCCUCCCUGGAUUCCUCGUCACUCAGCAGGGCAUCUCUGAGAGAAAUGCC [A42U U102C] | 0.89 |
| UACGUAGGUGGUUUUCCCCUGAUAGUGCUAAGGGGGCCUGGUAGUUUGGACUGGGCAGAGCUCAACACAGCGUGGCAAAGUGGCUGUGGCUAGACUGCCUCGCUGGAUUCCUCGUCACUCAGCAGGGCAUCUCUGAGAGAAAUGCC [A42U U102G] | 0.09 |
| UACGUAGGUGGUUUUCCCCUGAUAGUGCUAAGGGGGCCUGGUAGUUUGGACUGGUCAGAGCUCAACACAGCGUGGCAAAGUGGCUGUGGCUAGACUGCCUCUCUGGAUUCCUCGUCACUCAGCAGGGCAUCUCUGAGAGAAAUGCC [A42U G55U] | 0.1 |
| UACGUAGGUGGUUUUCCCCUGAUAGUGCUAAGGGGGCCUGGUAGUUUGGACUGGGCAGAGCUCAACACAGCGUGGCAAAGUGGCUGUGGCUAGACUGCCUCUCUGGAUUCCUCGUCACUCAGCAGGGCAUCUCUGAGAGAAACGCC [A42U U143C] | 0.94 |
| UACGUAGGUGGUUUUCCCCUGAUAGUGCUAAGGGGGCCUGGACGUUUGGACUGGGCAGAGCUCAACACAGCGUGGCAAAGUGGCUGUGGCUAGGCUGCCUCUCUGGAUUCCUCGUCACUCAGCAGGGCAUCUCUGAGAGAAAUGCC [A43C A94G] | 0.66 |
| UACGUAGGUGGUUUUCCCCUGAUAGUGCUAAGGGGGCCUGGACGUUUGGACUGGGCAGAGCUCAACACAGCGUGGCAAAGUGGCUGUGGCUAGACUGCCUCUCUGGAUUCCUCGUCACUCAGCAGGGCAUCUCUGUGAGAAAUGCC [A43C A136U] | 1.64 |
| UACGUAGGUGGUUUUCCCCUGAUAGUGCUAAGGGGGCCUGGUAGUUUGGACUGGGCAGAGCUCAACACAGCGUGGCAAAGUGGCUGUGGCUAGACUGCCUCUCUGGAUUCCUCGUCACUCAGCAGGGCAUCACUGAGAGAAAUGCC [A42U U132A] | 1.02 |
| UACGUAGGUGGUUUUCCCCUGAUAGUGCUAAGGGGGCCUGGUAGUUUGGACUGGGCAGAGCUCAAAACAGCGUGGCAAAGUGGCUGUGGCUAGACUGCCUCUCUGGAUUCCUCGUCACUCAGCAGGGCAUCUCUGAGAGAAAUGCC [A42U C66A] | 0.03 |
| UACGUAGGUGGUUUUCCCCUGAUAGUGCUAAGGGGGCCUGGUAGUUUGGACUGGGCAGAGCUCAACACAGCGUGGCAAAGCGGCUGUGGCUAGACUGCCUCUCUGGAUUCCUCGUCACUCAGCAGGGCAUCUCUGAGAGAAAUGCC [A42U U81C] | 1.28 |
| UACGUAGGUGGUUUUCCCCUGAUAGUGCUAAGGGGGCCUGGUAGUUUGGACUGGGCAGAGCUCAACACAGCGUGGCAAAGUGGCUGUGGCUAGACUGCCUCUCUGGAUACCUCGUCACUCAGCAGGGCAUCUCUGAGAGAAAUGCC [A42U U109A] | 1.39 |
| UACGUAGGUGGUUUUCCCCUGAUAGUGCUAAGGGGGCCUGGACGUUUGGACUGGGCAGAGCUCAGCACAGCGUGGCAAAGUGGCUGUGGCUAGACUGCCUCUCUGGAUUCCUCGUCACUCAGCAGGGCAUCUCUGAGAGAAAUGCC [A43C A65G] | 0 |
| UACGUAGGUGGUUUUCCCCUGAUAGUGCUAAGGGGGCCUGGUAGUUUGGACUGGGCAGAGCUCAACACAGCGUGGCAAAGUGGCUGUGGCUAGACUGCCUCUCCGGAUUCCUCGUCACUCAGCAGGGCAUCUCUGAGAGAAAUGCC [A42U U104C] | 1.76 |
| UACGUAGGUGGUUUUCCCCUGAUAGUGCUAAGGGGGCCUGGUAGUUUGGACUGGGCAGAGCUCAACACAGCGUGGCAAAGUGGCUGUGGCUAGACUGCCUCUCUGGGUUCCUCGUCACUCAGCAGGGCAUCUCUGAGAGAAAUGCC [A42U A107G] | 1.25 |
| UACGUAGGUGGUUUUCCCCUGAUAGUGCUAAGGGGGCCUGGUAGUUUGGACUGGGCAGAGCUCAACACAGCGUGGCAAAGUGGCUGUGGCUAGACUGCCUCUAUGGAUUCCUCGUCACUCAGCAGGGCAUCUCUGAGAGAAAUGCC [A42U C103A] | 0.91 |
